Experimental data published in patent US20250188176A1 (INVETX, published 2025).
Residue numbers refer to the chain shown, from its start.

Legend:
[1] = biological target: T1, Extracellular domain (ECD) of the canine IL-4 receptor alpha-V5 epitope-AviTag-His Tag (canine); test: SPR, antibody captured via anti-human Fc
T1 construct: monomeric form isolated by size exclusion; also called canine IL-4RA-V5-Avi-His; canine IL-4RA
T1 chain: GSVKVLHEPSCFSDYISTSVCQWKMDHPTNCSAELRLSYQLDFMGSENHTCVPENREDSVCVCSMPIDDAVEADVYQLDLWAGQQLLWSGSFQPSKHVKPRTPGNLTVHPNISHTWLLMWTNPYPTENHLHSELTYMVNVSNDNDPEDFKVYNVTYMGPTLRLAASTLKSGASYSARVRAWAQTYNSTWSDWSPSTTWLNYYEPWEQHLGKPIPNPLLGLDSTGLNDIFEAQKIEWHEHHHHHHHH
Protocol: To determine the affinity of dupilumab more accurately for canine IL-4RA, an SPR experiment was completed using a Biacore T200 instrument. In this experiment, a CM5 sensor chip (Cytiva, cat #BR100530) was used to immobilize anti-human Fc following the instructions of Human Antibody Capture Kit (Cytiva, cat #BR100839). […] The running buffer was HBS-EP buffer (10 mM HEPES pH 7.4, 150 mM NaCl, 3 mM EDTA and 0.005% (v/v) P20 surfactant). […] All kinetic and steady state analyses were performed using BIAEVAL provided by BIACORE Inc.

[2] = biological target: T2, Extracellular domain (ECD) of the canine IL-4 receptor alpha-AviTag-His Tag (canine); test: SPR, IgG captured via anti-dog Fc
T2 construct: expressed in CHO cells; also called canine IL-4RA; canine IL4Ra
T2 chain: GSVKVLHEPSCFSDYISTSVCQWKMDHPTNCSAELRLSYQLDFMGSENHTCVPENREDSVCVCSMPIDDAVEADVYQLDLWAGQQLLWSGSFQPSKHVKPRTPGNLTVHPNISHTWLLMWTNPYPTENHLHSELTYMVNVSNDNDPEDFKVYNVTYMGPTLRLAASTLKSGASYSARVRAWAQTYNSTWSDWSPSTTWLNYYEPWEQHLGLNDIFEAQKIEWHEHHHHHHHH
Protocol: (§1) Both the heavy and light chain variants were evaluated for their binding kinetics to canine IL-4RA using SPR on a Biacore T200. The antibodies were captured using a CM5 Series S chip amine coupled with an anti-dog Fc antibody (Jackson Immunoresearch). […] The length of the association time was 120 s and the dissociation time was run for 600 s. The chip surface was regenerated with 10 mM glycine. Double reference-subtracted sensorgrams were fitted to a 1:1 binding model using Biacore T200 Evaluation software.

[3] = biological target: canine IL-4RA on canine DH82 cells (canine); test: cell-based or functional assay
[4] = biological target: T2, Extracellular domain (ECD) of the …; test: SPR, IgG captured via anti-dog Fc
Protocol: as §1

[5] = biological target: T2, Extracellular domain (ECD) of the …; test: SPR, IgG captured via anti-dog Fc
Protocol: as §1
Six different combinations of heavy and light chain variants (Table 30) were co-transfected and produced as described above. The binding kinetics of the heavy and light chain variants to canine IL-4RA was determined using the SPR methods described above.

[6] = biological target: T2, Extracellular domain (ECD) of the …; test: SPR, IgG captured via anti-dog H+L
Protocol: Affinities were determined by SPR on a Biacore T200. The antibodies were captured using a CM5 Series S chip amine coupled with an anti-dog H+L antibody (Jackson Immunoresearch). Antigen, canine IL-4RA (EQ ID NO:2), binding was then assessed at multiple concentrations starting at 100 nM using PBSP+ running buffer (Cytiva) with a flow rate of 30 μL/min. […] The length of the association time was 120 s and the dissociation time was run for 600 s. The chip surface was regenerated with 10 mM glycine.

[7] = biological target: T1, Extracellular domain (ECD) of the …; test: SPR, Fab-SASA captured on BSA;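 further: biacore T200 SPR, Fab-SASA variants from E. coli conditioned medium captured on BSA-coated CM5 chip, canine IL-4RA injected 120 s then 420 s dissociation, 1:1 model fit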

B1: Dupilumab (dupilumab VH with human IgG1 constant region, dupilumab kappa light chain) (antibody, V domains shown)
VH: EVQLVESGGGLEQPGGSLRLSCAGSGFTFRDYAMTWVRQAPGKGLEWVSSISGSGGNTYYADSVKGRFTISRDNSKNTLYLQMNSLRAEDTAVYYCAKDRLSITIRPRYYGLDVWGQGTTVTVSS
VL: DIVMTQSPLSLPVTPGEPASISCRSSQSLLYSIGYNYLDWYLQKSGQSPQLLIYLGSNRASGVPDRFSGSGSGTDFTLKISRVEAEDVGFYYCMQALQTPYTFGQGTKLEIKR
notes: human IgG1 instead of the IgG4 of the drug
**Q.** B1 was tested. Which Kd [1] did it give?
**A.** Its Kd is 130000 pM.

**Q.** And the koff [1]?
**A.** Its koff is 0.143 s⁻¹.

**Q.** What about the kon [1] of the same binder?
**A.** Its kon is 1.09e+06 M⁻¹ s⁻¹.

B2: 21188-H + 21188-L (antibody, V domains shown)
VH: EVQLVESGGDLVKPGGSLRLSCVASGFTFRDYAMTWVRQAPGKGLQWLSLISGSGGKTYYADAVKGRFTISRDNAKNTLYLQMNSLRAEDTAVYYCAVDRLTKTIRPQYYGLWHWGQGTLVTVSS
VL: DIVMTQTPLSLSVSPGETASISCRSSQSLTYSIGYNYLDWYMQKPGQSPQGLIYLGSKRASGVSDRFSGSGSGADFTLKISRVEADDAGVYYCMQGLQSPLGFGQGTKLEIKR
**Q.** How did the Kd [2] turn out when B2 was run?
**A.** The Kd was 400 pM.

**Q.** And the koff [2]?
**A.** The koff was 9.85e-05 s⁻¹.

**Q.** And the kon [2]?
**A.** Its kon is 246000 M⁻¹ s⁻¹.

**Q.** What about the “IC50: % inhibition of STAT6 phosphorylation (AlphaLISA pSTAT6) in canine DH82 cells stimulated with 20 ng/mL canine IL-4” value [3] of the same binder?
**A.** Its value is 2.17 nM.

**Q.** What about the Kd [4] of the same binder?
**A.** The Kd was 180 pM.

**Q.** And the koff [4]?
**A.** The koff was 5.96e-05 s⁻¹.

**Q.** What about the kon [4] of the same binder?
**A.** Its kon is 332000 M⁻¹ s⁻¹.

**Q.** And the Kd [5]?
**A.** Its Kd is 243 pM.

**Q.** What about the koff [5] of the same binder?
**A.** The koff was 9.93e-05 s⁻¹.

**Q.** And the kon [5]?
**A.** Its kon is 410000 M⁻¹ s⁻¹.

B3: TB640_057 (antibody, V domains shown)
VH: B2 VH with L48V, L50T, S52T, K57N, V98K, T102S, K103I, Q108R, W113D, H114V
VL: DIVMTQTPLSLSVSPGETASISCRASQSLLYSIGYNYLDWYLQKPGQSPQGLIYLGSKRASGVPDRFSGSGSGTDFTLRISRVEANDTGVYYCMQAIQAPYTFGQGTKLEIKR
notes: caninized IgG
**Q.** What does the source list for B3?
**A.** Kd [6]: 5540 pM; koff [6]: 0.00107 s⁻¹; kon [6]: 194000 M⁻¹ s⁻¹

B4: TB640_109 (antibody, V domains shown)
VH: B2 VH with L48V, L50T, W113S, H114V
VL: B3 VL with I97L, Q98R, A99D
notes: caninized IgG
**Q.** Which Kd [6] does the source give for B4 here?
**A.** Its Kd is 6060 pM.

**Q.** And the koff [6]?
**A.** Its koff is 0.00136 s⁻¹.

**Q.** What about the kon [6] of the same binder?
**A.** Its kon is 225000 M⁻¹ s⁻¹.

B5: TB640_005 Fab-SASA VL-Y35M (Fab, V domains shown)
VH: B2 VH with L48V, H114V
VL: B3 VL with A25S, Y35M, A96G, I97L, A99S, Y101L
notes: not shown: SASA tag then His-tag
**Q.** Which Kd [7] does the source give for B5 here?
**A.** The Kd was 8340 pM.

**Q.** What about the “Ratio WT-kd/clone-kd” value [7] of the same binder?
**A.** The value was 1.02.

**Q.** And the koff [7]?
**A.** The koff was 0.000932 s⁻¹.

**Q.** What about the kon [7] of the same binder?
**A.** Its kon is 112000 M⁻¹ s⁻¹.

B6: 21188-H + GFmix3_KTHS-L (antibody, V domains shown)
VH: B2 VH
VL: B2 VL with Q27K, Q98H, G102S
**Q.** For B6, which Kd [4] is on record?
**A.** Its Kd is 144 pM.

**Q.** What about the koff [4] of the same binder?
**A.** The koff was 4.79e-05 s⁻¹.

**Q.** And the kon [4]?
**A.** Its kon is 333000 M⁻¹ s⁻¹.

B7: FJP05A03-H + GFmix3_KTHS-L (antibody, V domains shown)
VH: B2 VH with F27L, T28P, T35A, H114V
VL: B2 VL with Q27K, Q98H, G102S
**Q.** How did the Kd [5] turn out when B7 was run?
**A.** Its Kd is 187 pM.

**Q.** And the koff [5]?
**A.** The koff was 8.68e-05 s⁻¹.

**Q.** What about the kon [5] of the same binder?
**A.** Its kon is 466000 M⁻¹ s⁻¹.

B8: TB640_005 Fab-SASA VL-T102N (Fab, V domains shown)
VH: B2 VH with L48V, H114V
VL: B3 VL with A25S, A96G, I97L, A99S, Y101L, T102N
notes: as for B5
**Q.** With B8 as the binder, how does the Kd [7] read?
**A.** Its Kd is 6830 pM.

**Q.** What about the “Ratio WT-kd/clone-kd” value [7] of the same binder?
**A.** Its value is 1.74.

**Q.** And the koff [7]?
**A.** The koff was 0.000548 s⁻¹.

**Q.** And the kon [7]?
**A.** Its kon is 80100 M⁻¹ s⁻¹.

B9: GFmix_PTH-H + FJP10A09-L (antibody, V domains shown)
VH: B2 VH with T28P
VL: B2 VL with Q98H, G102S
**Q.** With B9 as the binder, how does the Kd [5] read?
**A.** The Kd was 167 pM.

**Q.** And the koff [5]?
**A.** Its koff is 7e-05 s⁻¹.

**Q.** And the kon [5]?
**A.** The kon was 419000 M⁻¹ s⁻¹.

B10: 21188-H + FJP10F04-L (antibody, V domains shown)
VH: B2 VH
VL: B2 VL with Q27K, T30L, Q98H, G102T
**Q.** B10 was tested. Which Kd [4] did it give?
**A.** Its Kd is 238 pM.

**Q.** And the koff [4]?
**A.** The koff was 6.81e-05 s⁻¹.

**Q.** What about the kon [4] of the same binder?
**A.** The kon was 286000 M⁻¹ s⁻¹.

B11: FJP07H09-H + 21188-L (antibody, V domains shown)
VH: B2 VH with T35D, H114S
VL: B2 VL
**Q.** With B11 as the binder, how does the Kd [2] read?
**A.** The Kd was 1070 pM.

**Q.** What about the koff [2] of the same binder?
**A.** Its koff is 0.000253 s⁻¹.

**Q.** And the kon [2]?
**A.** The kon was 236000 M⁻¹ s⁻¹.

B12: TB640_005 Fab-SASA VL-T102L (Fab, V domains shown)
VH: B2 VH with L48V, H114V
VL: B3 VL with A25S, A96G, I97L, A99S, Y101L, T102L
notes: as for B5
**Q.** For B12, which Kd [7] is on record?
**A.** Its Kd is 6530 pM.

**Q.** What about the “Ratio WT-kd/clone-kd” value [7] of the same binder?
**A.** Its value is 1.7.

**Q.** What about the koff [7] of the same binder?
**A.** Its koff is 0.000562 s⁻¹.

**Q.** What about the kon [7] of the same binder?
**A.** The kon was 86000 M⁻¹ s⁻¹.

B13: 21188-H + FJP10A09-L (antibody, V domains shown)
VH: B2 VH
VL: B2 VL with Q98H, G102S
**Q.** How did the Kd [4] turn out when B13 was run?
**A.** The Kd was 143 pM.

**Q.** What about the koff [4] of the same binder?
**A.** The koff was 4.62e-05 s⁻¹.

**Q.** What about the kon [4] of the same binder?
**A.** Its kon is 324000 M⁻¹ s⁻¹.

B14: FJP05A03-H + 21188-L (antibody, V domains shown)
VH: B2 VH with F27L, T28P, T35A, H114V
VL: B2 VL
**Q.** What does the source list for B14?
**A.** Kd [2]: 377 pM; koff [2]: 0.000105 s⁻¹; kon [2]: 279000 M⁻¹ s⁻¹
